This passage reports EC50 and IC50 results from patent US20240116985A1, “STAPLED PEPTIDES AND METHODS THEREOF” (priority 2020, published 2024).

Starred links: 1 amine or outer side, 2 acyl side, 3 side chain; linkers in the order of their positions; H or OH if unused. Positions of bridges follow the written chain, without caps; N, C: chain ends. Non-standard residues stand in square brackets, D forms with d. Primed or numbered codes have the meaning given here. PyrS2″ = (S)-3-amino-1-((pent-4-en-1-yloxy)carbonyl)pyrrolidine-3-carboxylic acid (stapling residue), C=CCCCOC(=O)N1CC[C@@](N[*:1])(C(=O)[*:2])C1; (bismethoxyethylamine)GlnR = [bismethoxyethylamine]GlnR, N5,N5-bis(2-methoxyethyl)-L-glutamine, COCCN(CCOC)C(=O)CC[C@H](N[*:1])C(=O)[*:2]; B5(4) = 2,2-bis(4-pentenyl)glycine = 2-amino-2-(pent-4-en-1-yl)hept-6-enoic acid (stitching residue), C=CCCCC(CCCC=C)(N[*:1])C(=O)[*:2]; B5(5) = 2,2-bis(4-pentenyl)glycine, 2-amino-2-(pent-4-en-1-yl)hept-6-enoic acid (stitching residue), C=CCCCC(CCCC=C)(N[*:1])C(=O)[*:2]; PyrS2 = (S)-3-amino-1-((pent-4-en-1-yloxy)carbonyl)pyrrolidine-3-carboxylic acid, C=CCCCOC(=O)N1CC[C@@](N[*:1])(C(=O)[*:2])C1; B5(12) = 2-amino-2-(pent-4-en-1-yl)hept-6-enoic acid (two olefin side chains), C=CCCCC(CCCC=C)(N[*:1])C(=O)[*:2]; B5(25) = 2-amino-2-(pent-4-en-1-yl)hept-6-enoic acid (stitching residue), C=CCCCC(CCCC=C)(N[*:1])C(=O)[*:2]; (CyPr)‑3SF = (S)-2-amino-3-(3-cyclopropylphenyl)propanoic acid, O=C([C@H](Cc1cccc(C2CC2)c1)N[*:1])[*:2]; B5(3) = 2,2-bis(4-pentenyl)glycine (stitching residue), C=CCCCC(CCCC=C)(N[*:1])C(=O)[*:2]; Phe(3-Ph) = N[C@@H](Cc1cccc(-c2ccccc2)c1)C(=O)O; Phe(3-COOH) = N[C@@H](Cc1cccc(C(=O)O)c1)C(=O)O; 2F3MeF = Cc1cccc(C[C@H](N[*:1])C(=O)[*:2])c1F; Phe(2-CF3) = N[C@@H](Cc1ccccc1C(F)(F)F)C(=O)O; Ala(4-thiazolyl) = N[C@@H](Cc1cscn1)C(=O)O; dαMeGly(allyl) = C=CC[C@@](C)(N)C(=O)O; Bta = N[C@@H](Cc1csc2ccccc12)C(=O)O; Lys(iPr) = CC(C)NCCCC[C@H](N)C(=O)O; αAllylPro = C=CC[C@@]1(C(=O)O)CCCN1; tBuAla = CC(C)(C)C[C@H](N)C(=O)O; 2Thi = N[C@@H](Cc1cccs1)C(=O)O; 3Thi = N[C@@H](Cc1ccsc1)C(=O)O; Cha = N[C@@H](CC1CCCCC1)C(=O)O; Cit = NC(=O)NCCC[C@H](N)C(=O)O; R5 = C=CCCC[C@@](C)(N)C(=O)O; hSer = N[C@@H](CCO)C(=O)O; Nle = CCCC[C@H](N)C(=O)O; Abu = CC[C@H](N)C(=O)O; Aib = CC(C)(N)C(=O)O

In one assay the target is full-length beta-Catenin (Uniprot ID P35222) (Homo sapiens (Human)) (UniProt P35222). The assay can be described thus: fluorescence polarization competition; 10 nM full-length beta-catenin with 10 nM 5FAM-TCF4 (residues 10-53) probe as competitor.
Target sequence in this assay (P35222 2-781 limits assumed): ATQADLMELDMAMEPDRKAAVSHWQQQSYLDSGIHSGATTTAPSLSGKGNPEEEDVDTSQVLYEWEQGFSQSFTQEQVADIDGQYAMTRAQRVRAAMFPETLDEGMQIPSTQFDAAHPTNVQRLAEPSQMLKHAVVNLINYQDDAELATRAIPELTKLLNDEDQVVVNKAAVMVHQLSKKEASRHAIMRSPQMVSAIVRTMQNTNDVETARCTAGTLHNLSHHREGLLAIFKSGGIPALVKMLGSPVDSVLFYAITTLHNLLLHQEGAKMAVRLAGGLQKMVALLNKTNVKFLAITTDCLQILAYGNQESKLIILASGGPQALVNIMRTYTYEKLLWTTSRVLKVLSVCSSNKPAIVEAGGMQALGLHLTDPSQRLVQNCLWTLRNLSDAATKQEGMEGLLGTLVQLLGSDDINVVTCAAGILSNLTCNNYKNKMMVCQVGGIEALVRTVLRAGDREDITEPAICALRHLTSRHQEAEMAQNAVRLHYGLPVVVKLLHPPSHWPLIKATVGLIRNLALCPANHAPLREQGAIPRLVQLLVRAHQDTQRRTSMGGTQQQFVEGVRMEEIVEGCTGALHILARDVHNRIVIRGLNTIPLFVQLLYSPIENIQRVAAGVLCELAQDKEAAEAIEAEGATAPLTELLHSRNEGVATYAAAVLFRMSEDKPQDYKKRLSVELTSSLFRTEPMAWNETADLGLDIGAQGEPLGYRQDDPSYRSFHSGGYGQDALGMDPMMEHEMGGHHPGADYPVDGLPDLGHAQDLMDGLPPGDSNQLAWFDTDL
As usually defined, the EC50 is the concentration giving half of the maximal effect. Ac-[αAllylPro]D[tBuAla][B5(12)]DLAAFN[PyrS2][3Thi][Bta]-NH2 (staple 1-4, 4-11) [I-862] yielded an EC50 of 123 nM.

Ac-[αAllylPro]D[tBuAla][B5(12)]D[Cit]AAFN[PyrS2][3Thi][Bta]-NH2 (staple 1-4, 4-11) [I-861] showed an EC50 of 40 nM.

The next assay has the same target. The assay can be described thus: fluorescence polarization competition against 5FAM-TCF4 10-53.
Target sequence in this assay (P35222 whole entry, the tested form may be a part): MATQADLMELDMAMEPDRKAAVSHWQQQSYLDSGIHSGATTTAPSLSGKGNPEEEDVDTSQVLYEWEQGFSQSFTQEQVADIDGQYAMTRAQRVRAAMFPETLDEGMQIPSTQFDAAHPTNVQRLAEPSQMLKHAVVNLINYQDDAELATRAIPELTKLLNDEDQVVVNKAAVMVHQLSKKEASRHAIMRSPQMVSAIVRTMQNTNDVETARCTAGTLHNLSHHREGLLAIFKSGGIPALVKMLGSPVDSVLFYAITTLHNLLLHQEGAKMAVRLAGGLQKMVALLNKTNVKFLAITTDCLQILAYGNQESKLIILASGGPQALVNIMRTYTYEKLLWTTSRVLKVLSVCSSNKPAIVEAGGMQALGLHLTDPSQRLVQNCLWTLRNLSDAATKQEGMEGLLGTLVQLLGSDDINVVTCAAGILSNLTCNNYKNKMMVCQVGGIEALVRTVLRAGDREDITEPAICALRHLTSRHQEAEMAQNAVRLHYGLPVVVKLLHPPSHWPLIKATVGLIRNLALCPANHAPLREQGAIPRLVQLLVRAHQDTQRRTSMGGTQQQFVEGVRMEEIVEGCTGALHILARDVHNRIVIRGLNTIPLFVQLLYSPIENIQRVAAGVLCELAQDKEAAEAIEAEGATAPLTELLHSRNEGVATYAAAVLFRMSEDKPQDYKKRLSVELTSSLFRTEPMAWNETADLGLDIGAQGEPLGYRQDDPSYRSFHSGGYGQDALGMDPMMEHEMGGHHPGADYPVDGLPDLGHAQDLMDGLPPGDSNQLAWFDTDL
For orientation: IC50 means the concentration that gives 50% inhibition. Ac-[αAllylPro]D[tBuAla][B5(3)]D[Phe(3-COOH)]AAFL[PyrS2″][Phe(3-Ph)]FQ-NH2 (staple 1-4, 4-11) [I-2214] showed an IC50 of 1860 nM. In turn, Ac-[αAllylPro]D[tBuAla][B5(3)]D[Phe(3-COOH)]AAFL[PyrS2″][(CyPr)‑3SF]FQ-NH2 (staple 1-4, 4-11) [I-2215] returned an IC50 of 1540 nM.

The next assay has the same target. Put plainly: fluorescence polarization competition; 10 nM full-length beta-catenin + 10 nM 5FAM-TCF4(10-53), peptide titrated. On the technique in general: Polarisation of emitted light reports the rotation of a fluorescent probe.
Target sequence in this assay (P35222 whole entry, the tested form may be a part): as above
As for Ac-[αAllylPro]D[tBuAla][B5(4)]D[Phe(3-COOH)]AAFF[PyrS2″][Phe(2-CF3)][Bta][dQ]-NH2 (staple 1-4, 4-11) [I-2093], the IC50 was 43 nM. As for Ac-[αAllylPro]N[Cha][B5(5)]DQ[Lys(iPr)]AFN[PyrS2″][3Thi][Bta][hSer]-NH2 (staple 1-4, 4-11) [I-2074], the IC50 was 789 nM. The same measure, in the same setting: then Ac-[αAllylPro]N[Cha][B5(5)]DQ[Lys(iPr)]AFN[PyrS2″]F[Bta]-NH2 (staple 1-4, 4-11) [I-2073], with 398 nM; and Ac-[αAllylPro]D[tBuAla][B5(4)]D[Phe(3-COOH)]AAFF[PyrS2″][2F3MeF][Bta][dA]-NH2 (staple 1-4, 4-11) [I-2095], with 78 nM; and Ac-[αAllylPro]N[Cha][B5(5)]DQ[Lys(iPr)]AFN[PyrS2″][Ala(4-thiazolyl)][Bta][hSer]-NH2 (staple 1-4, 4-11) [I-2071], with 592 nM. On to Ac-[αAllylPro]D[tBuAla][B5(4)]D[Phe(3-COOH)]AAFL[PyrS2″][Phe(2-CF3)][Bta][dA]-NH2 (staple 1-4, 4-11) [I-2091], for which the IC50 is 49 nM. Take Ac-[αAllylPro]N[Cha][B5(5)]DQ[Lys(iPr)]AFN[PyrS2″][2Thi][Bta][hSer]-NH2 (staple 1-4, 4-11) [I-2075]: the IC50 worked out at 2330 nM. Turning to Ac-[αAllylPro]N[Cha][B5(5)]DQ[Lys(iPr)]A[Ala(4-thiazolyl)]N[PyrS2″]F[Bta][hSer]-NH2 (staple 1-4, 4-11) [I-2072], the IC50 was 8260 nM.

For a further assay the target is unchanged. The assay can be described thus: fluorescence polarization competition; competitor 5FAM-TCF4(10-53) on full-length beta-catenin.
Target sequence in this assay (P35222 whole entry, the tested form may be a part): as above
For Ac-[αAllylPro]D[tBuAla][B5(4)]D[Phe(3-COOH)][Aib]AF[Nle][PyrS2″][3Thi][Bta][(bismethoxyethylamine)GlnR]-NH2 (staple 1-4, 4-11) [I-2554], the IC50 stood at 8 nM. For Ac-P[dαMeGly(allyl)]D[tBuAla][B5(25)]D[Phe(3-COOH)]AAFL[PyrS2″][Phe(2-CF3)][Bta]Q-NH2 (staple 5-12, 2-5) [I-2566], the IC50 amounted to 181 nM. Regarding Ac-P[R5]D[tBuAla][B5(25)]D[Phe(3-COOH)]AAFL[PyrS2″][Phe(2-CF3)][Bta]Q-NH2 (staple 5-12, 2-5) [I-2567], the IC50 was found to be 522 nM. As to Ac-[αAllylPro]D[tBuAla][B5(4)]D[Phe(3-COOH)][Aib]AF[Abu][PyrS2″][3Thi][Bta][(bismethoxyethylamine)GlnR]-NH2 (staple 1-4, 4-11) [I-2559], the IC50 turned out to be 8 nM.

The target is the same in the next assay. The assay can be described thus: FP competition vs 5FAM-TCF4(10-53), full-length beta-catenin.
Target sequence in this assay (P35222 2-781 limits assumed): as the sequence (P35222 2-781 limits assumed) above
Turning to Ac-[αAllylPro]D[tBuAla][B5(12)]DLAAFN[PyrS2][3Thi][Bta]-NH2 (staple 1-4, 4-11) [I-862], the IC50 came out at 123 nM. For Ac-[αAllylPro]D[tBuAla][B5(12)]D[Cit]AAFN[PyrS2][3Thi][Bta]-NH2 (staple 1-4, 4-11) [I-861], the IC50 came to 40 nM.
